Assay results as given in publication PMC9158661.

Target: extracellular Cu/Zn superoxide dismutase from Onchocerca volvulus (OvEC-SOD) (Onchocerca volvulus)
Test: SAXS; monodisperse solutions after affinity-tag cleavage, four concentrations 0.5-7.5 mg/ml; molecular mass from forward scattering with bovine serum albumin as reference; compared with the crystallographic dimer (CRYSOL, SREFLEX, GASBOR)

Substance: extracellular Cu/Zn superoxide dismutase from Onchocerca volvulus (OvEC-SOD) (enzyme)
- stoichiometry N: 2
